Patent US20050106141A1 (PROCTER AND GAMBLE, published 2005)
Values belong to the binder of their own block, whether it stands above or below them.

Experiments:
LexA BD-HRt = biological target: T1, LexA BD-HRt (mouse, UniProt P0A7C2 1-202; Q61645 490-1182); test: yeast two-hybrid library screen; number of positive clones with this identity
T1 construct: domain: Lex A DNA BD;range 490-1182; also called BD-HRt(mouse); Lex A DNA BD-HRt
T1 sequence (looked up): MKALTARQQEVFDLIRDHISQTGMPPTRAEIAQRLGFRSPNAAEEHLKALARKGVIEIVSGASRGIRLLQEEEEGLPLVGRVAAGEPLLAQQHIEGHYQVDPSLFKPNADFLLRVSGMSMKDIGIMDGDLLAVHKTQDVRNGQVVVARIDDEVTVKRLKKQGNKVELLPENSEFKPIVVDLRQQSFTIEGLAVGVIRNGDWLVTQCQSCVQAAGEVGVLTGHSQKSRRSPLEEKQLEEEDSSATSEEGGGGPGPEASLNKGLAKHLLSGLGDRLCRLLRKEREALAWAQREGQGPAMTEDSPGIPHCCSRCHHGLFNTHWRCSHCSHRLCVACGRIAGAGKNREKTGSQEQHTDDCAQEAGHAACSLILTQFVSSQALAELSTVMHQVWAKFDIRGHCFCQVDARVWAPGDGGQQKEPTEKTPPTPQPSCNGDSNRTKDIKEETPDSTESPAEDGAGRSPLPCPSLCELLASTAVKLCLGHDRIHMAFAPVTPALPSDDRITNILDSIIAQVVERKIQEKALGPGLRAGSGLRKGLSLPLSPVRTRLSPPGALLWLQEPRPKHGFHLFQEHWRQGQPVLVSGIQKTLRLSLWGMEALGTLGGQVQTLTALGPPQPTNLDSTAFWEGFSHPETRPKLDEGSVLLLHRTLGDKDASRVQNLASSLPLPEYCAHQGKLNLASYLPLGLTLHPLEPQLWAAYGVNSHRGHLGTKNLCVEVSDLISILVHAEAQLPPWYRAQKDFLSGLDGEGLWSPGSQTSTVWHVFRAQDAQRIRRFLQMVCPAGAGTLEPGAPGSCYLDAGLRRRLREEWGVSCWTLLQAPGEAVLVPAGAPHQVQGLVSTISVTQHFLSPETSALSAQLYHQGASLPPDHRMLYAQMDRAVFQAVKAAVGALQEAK
Excerpt: Clontech Human Keratinocyte GAL4 cDNA library (complexity 2.5×10⁶) in pACT2 vector was used used to screen for HRt interacting proteins. A Leu⁻, Trp⁻ yeast strain with HIS3 and LACZ reporters for yeasts two hybrid interaction (strain L41) was first transformed with LexA BD-HRt palsmid) for Trp⁺ phenotype. The resulting L41/LexA BD-HR transformant was screened to ensure expression of LexA BD-HRt protein and also for lack of auto activation of the reporter genes HIS3 and LACZ. This strain was transformed with Keratinocyte AD-cDNA library and plated on Trp⁻Leu⁻His⁻ plate to select for clones with positive interaction. Colonies that appeared on selsctive plates were subsequently tested for LACZ expression on X-GAL plates. […] AD-plasmid was rescued from the 90 clones and retested for HRt bait dependance. […] The positive clones are expected to contain an AD-IP (interacting partner) that interacts with BD-HRt.

AD-HRt(mouse) = biological target: T2, AD-HRt(mouse) (mouse, UniProt Q61645 490-1182); test: cell-based or functional assay
T2 sequence (looked up): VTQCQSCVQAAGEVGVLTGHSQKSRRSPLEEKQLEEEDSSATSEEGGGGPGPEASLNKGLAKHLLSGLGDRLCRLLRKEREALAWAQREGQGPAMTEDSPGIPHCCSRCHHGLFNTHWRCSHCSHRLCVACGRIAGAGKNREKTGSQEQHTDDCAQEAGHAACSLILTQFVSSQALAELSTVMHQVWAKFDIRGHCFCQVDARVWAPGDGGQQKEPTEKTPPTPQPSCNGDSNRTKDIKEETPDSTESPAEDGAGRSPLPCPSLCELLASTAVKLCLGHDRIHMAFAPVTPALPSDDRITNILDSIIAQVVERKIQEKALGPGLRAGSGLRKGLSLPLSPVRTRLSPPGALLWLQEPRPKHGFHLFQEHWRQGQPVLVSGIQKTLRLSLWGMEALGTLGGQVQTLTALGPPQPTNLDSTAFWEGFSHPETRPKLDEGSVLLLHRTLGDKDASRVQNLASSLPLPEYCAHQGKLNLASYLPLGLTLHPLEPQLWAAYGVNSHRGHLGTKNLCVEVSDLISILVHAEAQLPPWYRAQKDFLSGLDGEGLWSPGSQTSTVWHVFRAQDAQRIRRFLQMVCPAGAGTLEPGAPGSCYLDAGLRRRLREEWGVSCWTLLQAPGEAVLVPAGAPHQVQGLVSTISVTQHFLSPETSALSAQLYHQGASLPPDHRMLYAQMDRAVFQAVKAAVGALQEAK

AD-TRβ = AD-TRβ (UniProt P04386 768-881); test: cell-based or functional assay
Sequence of AD-TRβ (P04386 768-881): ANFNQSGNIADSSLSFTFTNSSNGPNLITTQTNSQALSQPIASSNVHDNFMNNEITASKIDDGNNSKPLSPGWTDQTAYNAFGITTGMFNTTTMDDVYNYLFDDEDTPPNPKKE

- Hits (LexA BD-HRt): 4
B2: Homo Sapiens Similar to Stromal Antigen 2 (other, UniProt Q8N3U4 1-1231, looked up, not shown: large carriers)
chain: MIAAPEIPTDFNLLQESETHFSSDTDFEDIEGKNQKQGKGKTCKKGKKGPAEKGKGGNGGGKPPSGPNRMNGHHQQNGVENMMLFEVVKMGKSAMQSVVDDWIESYKHDRDIALLDLINFFIQCSGCKGVVTAEMFRHMQNSEIIRKMTEEFDEDSGDYPLTMAGPQWKKFKSSFCEFIGVLVRQCQYSIIYDEYMMDTVISLLTGLSDSQVRAFRHTSTLAAMKLMTALVNVALNLSINMDNTQRQYEAERNKMIGKRANERLELLLQKRKELQENQDEIENMMNAIFKGVFVHRYRDAIAEIRAICIEEIGIWMKMYSDAFLNDSYLKYVGWTMHDKQGEVRLKCLTALQGLYYNKELNSKLELFTSRFKDRIVSMTLDKEYDVAVQAIKLLTLVLQSSEEVLTAEDCENVYHLVYSAHRPVAVAAGEFLYKKLFSRRDPEEDGMMKRRGRQGPNANLVKTLVFFFLESELHEHAAYLVDSMWDCATELLKDWECMNSLLLEEPLSGEEALTDRQESALIEIMLCTIRQAAECHPPVGRGTGKRVLTAKEKKTQLDDRTKITELFAVALPQLLAKYSVDAEKVTNLLQLPQYFDLEIYTTGRLEKHLDALLRQIRNIVEKHTDTDVLEACSKTYHALCNEEFTIFNRVDISRSQLIDELADKFNRLLEDFLQEGEEPDEDDAYQVLSTLKRITAFHNAHDLSKWDLFACNYKLLKTGIENGDMPEQIVIHALQCTHYVILWQLAKITESSSTKEDLLRLKKQMRVFCQICQHYLTNVNTTVKEQAFTILCDILMIFSHQIMSGGRDMLEPLVYTPDSSLQSELLSFILDHVFIEQDDDNNSADGQQEDEASKIEALHKRRNLLAAFCKLIVYTVVEMNTAADIFKQYMKYYNDYGDIIKETMSKTRQIDKIQCAKTLILSLQQLFNEMIQENGYNFDRSSSTFSGIKELARRFALTFGLDQLKTREAIAMLHKDGIEFAFKEPNPQGESHPPLNLAFLDILSEFSSKLLRQDKRTVYVYLEKFMTFQMSLRREDVWLPLMSYRNSLLAGGDDDTMSVISGISSRGSTVRSKKSKPSTGKRKVVEGMQLSLTEESSSSDSMWLSREQTLHTPVMMQTPQLTSTIMREPKRLRPEDSFMSVYPMQTEHHQTPLDYNRRGTSLMEDDEEPIVEDVMMSSEGRIEDLNEGMDFDTMDIDLPPSKNRRERTELKPDFFDPASIMDESVLGVSMF
notes: Prey clone; also called AD-IP; BC001765

- Hits (LexA BD-HRt): 2
B3: Homo Sapiens DEAD (Asp-Glu-Ala-Asp) box polypeptide 3 (enzyme, UniProt O00571 1-662, looked up, not shown: large carriers)
chain: MSHVAVENALGLDQQFAGLDLNSSDNQSGGSTASKGRYIPPHLRNREATKGFYDKDSSGWSSSKDKDAYSSFGSRSDSRGKSSFFSDRGSGSRGRFDDRGRSDYDGIGSRGDRSGFGKFERGGNSRWCDKSDEDDWSKPLPPSERLEQELFSGGNTGINFEKYDDIPVEATGNNCPPHIESFSDVEMGEIIMGNIELTRYTRPTPVQKHAIPIIKEKRDLMACAQTGSGKTAAFLLPILSQIYSDGPGEALRAMKENGRYGRRKQYPISLVLAPTRELAVQIYEEARKFSYRSRVRPCVVYGGADIGQQIRDLERGCHLLVATPGRLVDMMERGKIGLDFCKYLVLDEADRMLDMGFEPQIRRIVEQDTMPPKGVRHTMMFSATFPKEIQMLARDFLDEYIFLAVGRVGSTSENITQKVVWVEESDKRSFLLDLLNATGKDSLTLVFVETKKGADSLEDFLYHEGYACTSIHGDRSQRDREEALHQFRSGKSPILVATAVAARGLDISNVKHVINFDLPSDIEEYVHRIGRTGRVGNLGLATSFFNERNINITKDLLDLLVEAKQEVPSWLENMAYEHHYKGSSRGRSKSSRFSGGFGARDYRQSSGASSSSFSSSRASSSRSGGGGHGSSRGFGGGGYGGFYNSDGYGGNYNSQGVDWWGN
notes: Prey clone; extent of the clone unknown; also called Homo Sapiens DEAD/H (Asp-Glu-Ala-Asp/His) Box Polypeptide 3; AD-IP

- Hits (LexA BD-HRt): 1
B4: Homo Sapiens Protein Inhibitor of Activated STAT-1 (PIAS1) (other, UniProt O75925 1-651, looked up, not shown: large carriers)
chain: MADSAELKQMVMSLRVSELQVLLGYAGRNKHGRKHELLTKALHLLKAGCSPAVQMKIKELYRRRFPQKIMTPADLSIPNVHSSPMPATLSPSTIPQLTYDGHPASSPLLPVSLLGPKHELELPHLTSALHPVHPDIKLQKLPFYDLLDELIKPTSLASDNSQRFRETCFAFALTPQQVQQISSSMDISGTKCDFTVQVQLRFCLSETSCPQEDHFPPNLCVKVNTKPCSLPGYLPPTKNGVEPKRPSRPINITSLVRLSTTVPNTIVVSWTAEIGRNYSMAVYLVKQLSSTVLLQRLRAKGIRNPDHSRALIKEKLTADPDSEIATTSLRVSLLCPLGKMRLTIPCRALTCSHLQCFDATLYIQMNEKKPTWVCPVCDKKAPYEHLIIDGLFMEILKYCTDCDEIQFKEDGTWAPMRSKKEVQEVSASYNGVDGCLSSTLEHQVASHHQSSNKNKKVEVIDLTIDSSSDEEEEEPSAKRTCPSLSPTSPLNNKGILSLPHQASPVSRTPSLPAVDTSYINTSLIQDYRHPFHMTPMPYDLQGLDFFPFLSGDNQHYNTSLLAAAAAAVSDDQDLLHSSRFFPYTSSQMFLDQLSAGGSTSLPTTNGSSSGSNSSLVSSNSLRESHSHTVTNRSSTDTASIFGIIPDIISLD
notes: Prey clone; extent of the clone unknown; also called AD-IP; AF167160

Further lines, the binder ahead of its results:

B1: Homo Sapiens Ubiquitous Receptor (receptor, UniProt P55055 1-460, looked up, not shown: large carriers)
chain: MSSPTTSSLDTPLPGNGPPQPGAPSSSPTVKEEGPEPWPGGPDPDVPGTDEASSACSTDWVIPDPEEEPERKRKKGPAPKMLGHELCRVCGDKASGFHYNVLSCEGCKGFFRRSVVRGGARRYACRGGGTCQMDAFMRRKCQQCRLRKCKEAGMREQCVLSEEQIRKKKIRKQQQESQSQSQSPVGPQGSSSSASGPGASPGGSEAGSQGSGEGEGVQLTAAQELMIQQLVAAQLQCNKRSFSDQPKVTPWPLGADPQSRDARQQRFAHFTELAIISVQEIVDFAKQVPGFLQLGREDQIALLKASTIEIMLLETARRYNHETECITFLKDFTYSKDDFHRAGLQVEFINPIFEFSRAMRRLGLDDAEYALLIAINIFSADRPNVQEPGRVEALQQPYVEALLSYTRIKRPQDQLRFPRMLMKLVSLRTLSSVHSEQVFALRLQDKKLPPLLSEIWDVHE
notes: Prey clone; also called Oxysterols Receptor LXR-Beta; LXR
- Hits (LexA BD-HRt): 14

B5: BD-VDR(mouse) (receptor, UniProt P04386 1-147, looked up)
chain: MKLLSSIEQACDICRLKKLKCSKEKPKCAKCLKNNWECRYSPKTKRSPLTRAHLTEVESRLERLEQLFLLIFPREDLDMILKMDSLQDIKALLTGLFVQDNVNKDAVTDRLASVETDMPLTLRQHRISATSSSEESSNKGQRQLTVSMEAMAASTSLPDPGDFDRNVPRICGVCGDRATGFHFNAMTCEGCKGFFRRSMKRKALFTCPFNGDCRITKDNRRHCQACRLKRCVDIGMMKEFILTDEEVQRKREMIMKRKEEEALKDSLRPKLSEEQQHIIAILLDAHHKTYDPTYADFRDFRPPIRADVSTGSYSPRPTLSFSGDSSSNSDLYTPSLDMMEPASFSTMDLNEEGSDDPSVTLDLSPLSMLPHLADLVSYSIQKVIGFAKMIPGFRDLTSDDQIVLLKSSAIEVIMLRSNQSFTLDDMSWDCGSQDYKYDITDVSRAGHTLELIEPLIKFQVGLKKLNLHEEEHVLLMAICIVSPDRPGVQDAKLVEAIQDRLSNTLQTYIRCRHPPPGSHQLYAKMIQKLADLRSLNEEHSKQYRSLSFQPENSMKLTPLVLEVFGNEIS
- relative alpha-galactosidase activity (yeast two-hybrid reporter, assay of example 3) with 1alpha, 25-dihydroxy cholecalciferol (25 DHC) at sub-micromolar concentrations (AD-HRt(mouse)): > 3 fold
- relative alpha-galactosidase activity (yeast two-hybrid reporter, assay of example 3) with 25-hydroxy cholecalciferol (25 HC) at sub-micromolar concentrations (AD-HRt(mouse)): > 3 fold
- yeast two-hybrid reporter with 25 HC (AD-TRβ): ~2 fold
